Data taken from article PMC8666670, “Malonyl-acyl carrier protein decarboxylase activity promotes fatty acid and cell envelope biosynthesis in Proteobacteria” (The Journal of Biological Chemistry, 2021).

Substrate: CC(=O)SCCNC(=O)CCNC(=O)[C@H](O)C(C)(C)COP(=O)(O)OP(=O)(O)OC[C@H]1O[C@@H](n2cnc3c(N)ncnc32)[C@H](O)[C@@H]1OP(=O)(O)O
Test: radiochemical TLC acetyltransferase assay, one-site Hill fit
Type: biochemical, Escherichia coli
Conditions: 500 μM glucosamine-1-phosphate, 20 mM MgCl2, 37 °C, labelled compound

B1: GlmU (Escherichia coli K-12) (protein)
chain: MLNNAMSVVILAAGKGTRMYSDLPKVLHTLAGKAMVQHVIDAANELGAAHVHLVYGHGGDLLKQALKDDNLNWVLQAEQLGTGHAMQQAAPFFADDEDILMLYGDVPLISVETLQRLRDAKPQGGIGLLTVKLDDPTGYGRITRENGKVTGIVEHKDATDEQRQIQEINTGILIANGADMKRWLAKLTNNNAQGEYYITDIIALAYQEGREIVAVHPQRLSEVEGVNNRLQLSRLERVYQSEQAEKLLLAGVMLRDPARFDLRGTLTHGRDVEIDTNVIIEGNVTLGHRVKIGTGCVIKNSVIGDDCEISPYTVVEDANLAAACTIGPFARLRPGAELLEGAHVGNFVEMKKARLGKGSKAGHLTYLGDAEIGDNVNIGAGTITCNYDGANKFKTIIGDDVFVGSDTQLVAPVTVGKGATIAAGTTVTRNVGENALAISRVPQTQKEGWRRPVKKK
notes: full-length in pET28a, His-tag kept; expressed in E. coli BL21(DE3)
  Km: 400 µM
